Patent publication US20110009310A1 (CELECURE, published 2011)

Experiments:
[1] = target: VEGFR1 (isolated recombinant receptor) (UniProt P17948 27-756, limits assumed); experiment: modified ELISA; CD44-3MUT coated on wells, recombinant VEGFR1 added, detected with anti-VEGFR antibody
Experimental: (§1) Modified ELISA tests to evaluate the binding of VEGFR2 (panel A) and VEGFR1 (panel B) to immobilized CD44-3MUT. […] Nonspecific binding was blocked with 2.5% non-fat dry milk solution. VEGFR1 and VEGFR2 were added into the coated wells and incubated for 1 h at RT. VEGFR binding was detected with anti-VEGFR antibodies
(§2) We have developed a modified ELISA test (to detect CD44-3MUT binding specificity to isolated recombinant receptors VEGFR1 and VEGFR2).

[2] = target: VEGFR2 (isolated recombinant receptor) (UniProt P35968 20-764, limits assumed); experiment: modified ELISA; CD44-3MUT coated on wells, recombinant VEGFR2 added, detected with anti-VEGFR antibody
Chain of VEGFR2 (isolated recombinant receptor) (P35968 20-764 limits assumed): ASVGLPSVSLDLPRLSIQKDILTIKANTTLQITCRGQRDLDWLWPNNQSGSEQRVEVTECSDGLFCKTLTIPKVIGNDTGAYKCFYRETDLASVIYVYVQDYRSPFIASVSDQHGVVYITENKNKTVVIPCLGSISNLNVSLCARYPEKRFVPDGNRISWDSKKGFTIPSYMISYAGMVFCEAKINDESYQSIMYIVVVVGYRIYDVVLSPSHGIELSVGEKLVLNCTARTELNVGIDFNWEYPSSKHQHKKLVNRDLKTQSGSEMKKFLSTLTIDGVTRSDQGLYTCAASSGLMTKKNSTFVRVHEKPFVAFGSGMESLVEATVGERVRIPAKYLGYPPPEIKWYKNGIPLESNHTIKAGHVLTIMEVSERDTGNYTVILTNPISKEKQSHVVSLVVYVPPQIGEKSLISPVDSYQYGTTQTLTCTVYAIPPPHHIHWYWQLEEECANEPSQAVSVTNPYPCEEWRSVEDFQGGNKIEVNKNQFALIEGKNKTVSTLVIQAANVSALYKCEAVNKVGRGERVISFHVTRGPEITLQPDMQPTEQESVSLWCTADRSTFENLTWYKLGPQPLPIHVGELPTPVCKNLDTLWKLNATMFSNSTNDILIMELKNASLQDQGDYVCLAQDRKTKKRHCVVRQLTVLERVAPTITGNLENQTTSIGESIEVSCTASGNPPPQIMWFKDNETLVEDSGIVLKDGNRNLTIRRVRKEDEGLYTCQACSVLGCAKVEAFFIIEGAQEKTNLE
Experimental: as §1, §2

Chain of VEGFR1 (isolated recombinant receptor) (P17948 27-756 limits assumed): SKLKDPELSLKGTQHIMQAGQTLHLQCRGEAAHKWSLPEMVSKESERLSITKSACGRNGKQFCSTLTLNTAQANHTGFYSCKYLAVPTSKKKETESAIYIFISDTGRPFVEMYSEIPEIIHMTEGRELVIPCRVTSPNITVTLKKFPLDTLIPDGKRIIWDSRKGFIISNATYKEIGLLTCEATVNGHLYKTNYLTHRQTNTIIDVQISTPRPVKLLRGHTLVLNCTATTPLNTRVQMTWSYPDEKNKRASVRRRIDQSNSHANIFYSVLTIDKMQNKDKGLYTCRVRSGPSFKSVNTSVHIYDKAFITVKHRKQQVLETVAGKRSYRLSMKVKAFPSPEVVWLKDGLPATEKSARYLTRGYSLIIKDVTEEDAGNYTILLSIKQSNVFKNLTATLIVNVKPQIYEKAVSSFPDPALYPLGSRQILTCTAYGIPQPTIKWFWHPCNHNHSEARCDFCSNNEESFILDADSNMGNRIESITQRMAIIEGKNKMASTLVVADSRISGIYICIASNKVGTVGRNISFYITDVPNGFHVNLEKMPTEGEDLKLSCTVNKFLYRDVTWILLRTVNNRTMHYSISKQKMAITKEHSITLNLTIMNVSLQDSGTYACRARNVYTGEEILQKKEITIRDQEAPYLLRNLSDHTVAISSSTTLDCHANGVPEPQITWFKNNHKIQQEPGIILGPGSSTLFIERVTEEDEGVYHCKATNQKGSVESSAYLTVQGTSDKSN

B1: CD44HABD^R41AR78SY79S (non-HA-binding triple mutant of the human CD44 hyaluronic acid binding domain) (other)
chain: QIDLNMTCRFAGVFHVEKNGAYSISRTEAADLCKAFNSTLPTMAQMEKALSIGFETCSSGFIEGHVVIPRIHPNSICAANNTGVYILTSNTSQYDTYCFNASAPPEEDCTSV
notes: Made in E. coli, non-glycosylated; also called CD44-3MUT; 3MUT
binding result [1]: no binding | binding result [2]: no binding
